Reference: patent US20140234868A1, “USE FOR GLYCOLIPOPROTEIN GINTONIN, ISOLATED AND IDENTIFIED FROM GINSENG, AS A NATURAL MEDICAL-PLANT DERIVED LIGAND” (KONKUK UNIVERSITY INDUSTRIAL COOPERATION CORP., priority 2011, published 2014)

Key:
Format in all cases: cell-based
[1] = molecular target: LPA4 receptor (Homo sapiens, UniProt Q99677); assay: Intracellular free Ca2+ (Fura-2AM) in LPA4-expressing B103 cells; design: host or cells: B103 rat neuroblastoma cells; conditions: gintonin
From the text: LPA family receptors are endogenous to cells of most organs. B103 rat neuroblastoma cells, known as LPA receptor-null cells (Valentine et al., Biochim Biophys Acta 1780. 597-605) were transiently transfected with a plasmid (vector) carrying one of genes coding for LPA1(edg-2), LPA2(edg-4), LPA3(edg-7), LPA4, LPA5 and LPA6 receptors or a plasmid carrying none of them (empty vector). Two or three days after transfection, the cells are suspended, and made permeable. Then, the permeable cells are treated with Fura-2AM, a fluorescent dye binding to calcium, and then with gintonin, followed by spectrofluorephotometry to examine whether gintonin induces an increase in intracellular free Ca^2+ level. […]

[2] = tested on: NMDA receptor; assay: NMDA receptor activity in oocytes expressing active or inactive RPTP alpha; conditions: oocytes expressing active or inactive RPTP α
Protocol: (§1) Two-electrode voltage-clamp recordings were obtained from individual oocytes placed in a small Plexiglas net chamber (5 ml). Electrophysiological experiments were performed using microelectrodes filled with 3 M KCl (resistance of 0.2-0.7 MΩ) and an Oocyte Clamp amplifier (OC-725C; Warner Instrument, Hamden, Conn.). For physiological recordings of NMDA receptor activity, oocytes were first perfused with Mg^2+-free ND96 (mM: 96 NaOH, 2 KOH, 0.3 CaCl2, 5 HEPES pH 7.6 with methanesulfonic acid). Then, the oocytes were clamped at −60 mV holding potential, followed by recoding NMDA currents (induced by administering […]) (Zheng et al., J Neurosci. 17, 8676-8686, 1997; Chang and Kuo, J Neurosci. 28, 1546-1556, 2008).

[3] = tested on: mutant NMDA receptor (S1308A); assay: Gintonin-induced activation of mutant NMDA receptor S1308A in oocytes; conditions: mutant S1308A (PKC phosphorylation site)
Protocol: as §1
Thus, it is understood that gintonin stimulates PKC to phosphorylate the NMDA receptor at a specific site (S1308), and thus that gintonin-induced NMDA receptor activation is associated with PKC activity.

Chain of LPA4 receptor (Q99677 whole entry): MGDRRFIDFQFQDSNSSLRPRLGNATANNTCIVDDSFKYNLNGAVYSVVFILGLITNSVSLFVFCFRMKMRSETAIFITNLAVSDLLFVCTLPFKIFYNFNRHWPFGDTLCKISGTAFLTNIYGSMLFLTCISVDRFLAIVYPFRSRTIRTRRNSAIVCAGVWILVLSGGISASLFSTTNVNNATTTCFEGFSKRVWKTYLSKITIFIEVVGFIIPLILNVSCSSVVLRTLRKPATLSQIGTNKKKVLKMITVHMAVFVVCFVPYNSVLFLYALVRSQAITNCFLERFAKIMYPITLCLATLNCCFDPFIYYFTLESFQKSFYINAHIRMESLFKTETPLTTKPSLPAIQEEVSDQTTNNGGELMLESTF

B1: gintonin: ginseng-derived glycolipoprotein; structural protein of ginseng major latex-like protein (MLP151) and ribonuclease-like storage proteins; crude gintonin used in tests (protein)
chain 1: MGLTGKLICQTGIKSDGDVFHELFGTRPHHVPNITPANIQGCDLHEGEFGKVGSVVIWNYSIDGNAMIAKEEIVAIDEEDKSVTFKVVEGHLFEEFKSIVFSVHVDTKGEDNLVTWSIDYEKLNESVKDPTSYLDFLLSVTRDIEAHHLPK
chain 2: RSDYPWAMFALRLQWPAGFCEVNNACDTKSLLNTFTIHGLYPYNAKGTPALYCDGTAFDVNSVSDFLAEMHLAWPSHETNTEDIQFWEHEWKKHGRCSEALLKQTDYFRTALAFRKAFDIVGLLNQEGIYPNNDLYRPKMIKEAIKKHLNAVPEIDFTKNENSEYVLTDINVCVNQQATRFVDCPTDDATDDYRLKFVRLPSKMKFADPRTNSII
increase in intracellular calcium level [1]: 61.6 ± 11.8 µM
NMDA receptor activity when treated with gintonin [2]: NMDA receptor activity at a low level
gintonin-induced NMDA receptor activation [3]: a low level of gintonin-induced NMDA receptor activation
